In patent publication US20030186281A1, “Modified tetracycline repressor protein compositions and methods of use” (priority 2001, published 2003):

B1: TetRrevAtc4-23: revTetR(BD) A50D L51V L52Q A54A L55L A61S (protein)
chain: MSRLDKSKVINSALELLNEVGIEGLTTRKLAQKLGVEQPTLYWHVKNKRDVQDALAVEILSRHHDYSLPAAGESWQSFLRNNAMSFRRALLRYRDGAKVHLGTRPDEKQYDTVETQLRFMTENGFSLRDGLYAISAVSHFTLGAVLEQQEHTAALTDRPAAPDENLPPLLREALQIMDSDDGEQAFLHGLESLIRGFEVQLTALLQIV
modifications: Modified tetracycline repressor
notes: revTetR(BD) A50D L51V L52Q A54A L55L A61S
B2: TetRrevAtc4-24: revTetR(BD) A56P V57A E58Q H63Q (protein)
chain: MSRLDKSKVINSALELLNEVGIEGLTTRKLAQKLGVEQPTLYWHVKNKRALLDALPAQILARQHDYSLPAAGESWQSFLRNNAMSFRRALLRYRDGAKVHLGTRPDEKQYDTVETQLRFMTENGFSLRDGLYAISAVSHFTLGAVLEQQEHTAALTDRPAAPDENLPPLLREALQIMDSDDGEQAFLHGLESLIRGFEVQLTALLQIV
modifications: Modified tetracycline repressor
notes: revTetR(BD) A56P V57A E58Q H63Q
B3: TetRrevAtc4-25: revTetR(BD) K48K V57L E58V I59T L60F R62S (protein)
chain: MSRLDKSKVINSALELLNEVGIEGLTTRKLAQKLGVEQPTLYWHVKNKRALLDALALVTFASHHDYSLPAAGESWQSFLRNNAMSFRRALLRYRDGAKVHLGTRPDEKQYDTVETQLRFMTENGFSLRDGLYAISAVSHFTLGAVLEQQEHTAALTDRPAAPDENLPPLLREALQIMDSDDGEQAFLHGLESLIRGFEVQLTALLQIV
modifications: Modified tetracycline repressor
notes: revTetR(BD) K48K V57L E58V I59T L60F R62S
B4: TetRrevAtc4-28: revTetR(BD) V57V E58K L60V R62G (protein)
chain: MSRLDKSKVINSALELLNEVGIEGLTTRKLAQKLGVEQPTLYWHVKNKRALLDALAVKIVAGHHDYSLPAAGESWQSFLRNNAMSFRRALLRYRDGAKVHLGTRPDEKQYDTVETQLRFMTENGFSLRDGLYAISAVSHFTLGAVLEQQEHTAALTDRPAAPDENLPPLLREALQIMDSDDGEQAFLHGLESLIRGFEVQLTALLQIV
modifications: Modified tetracycline repressor
notes: revTetR(BD) V57V E58K L60V R62G
B5: TetRrevAtc4-31: revTetR(BD) A50S D53Y A56G V57I H63Q (protein)
chain: MSRLDKSKVINSALELLNEVGIEGLTTRKLAQKLGVEQPTLYWHVKNKRSLLYGLGIEILARQHDYSLPAAGESWQSFLRNNAMSFRRALLRYRDGAKVHLGTRPDEKQYDTVETQLRFMTENGFSLRDGLYAISAVSHFTLGAVLEQQEHTAALTDRPAAPDENLPPLLREALQIMDSDDGEQAFLHGLESLIRGFEVQLTALLQIV
modifications: Modified tetracycline repressor
notes: revTetR(BD) A50S D53Y A56G V57I H63Q
B6: TetRrevAtc4-4: revTetR(BD) I59S R62S (protein)
chain: MSRLDKSKVINSALELLNEVGIEGLTTRKLAQKLGVEQPTLYWHVKNKRALLDALAVESLASHHDYSLPAAGESWQSFLRNNAMSFRRALLRYRDGAKVHLGTRPDEKQYDTVETQLRFMTENGFSLRDGLYAISAVSHFTLGAVLEQQEHTAALTDRPAAPDENLPPLLREALQIMDSDDGEQAFLHGLESLIRGFEVQLTALLQIV
modifications: Modified tetracycline repressor
notes: revTetR(BD) I59S R62S
B7: TetRrevAtc4-40: revTetR(BD) A56P L60L A61G R62R (protein)
chain: MSRLDKSKVINSALELLNEVGIEGLTTRKLAQKLGVEQPTLYWHVKNKRALLDALPVEILGRHHDYSLPAAGESWQSFLRNNAMSFRRALLRYRDGAKVHLGTRPDEKQYDTVETQLRFMTENGFSLRDGLYAISAVSHFTLGAVLEQQEHTAALTDRPAAPDENLPPLLREALQIMDSDDGEQAFLHGLESLIRGFEVQLTALLQIV
modifications: Modified tetracycline repressor
notes: revTetR(BD) A56P L60L A61G R62R
B8: TetRrevAtc4-43: revTetR(BD) L52V A56V V57L I59T A61S (protein)
chain: MSRLDKSKVINSALELLNEVGIEGLTTRKLAQKLGVEQPTLYWHVKNKRALVDALVLETLSRHHDYSLPAAGESWQSFLRNNAMSFRRALLRYRDGAKVHLGTRPDEKQYDTVETQLRFMTENGFSLRDGLYAISAVSHFTLGAVLEQQEHTAALTDRPAAPDENLPPLLREALQIMDSDDGEQAFLHGLESLIRGFEVQLTALLQIV
modifications: Modified tetracycline repressor
notes: revTetR(BD) L52V A56V V57L I59T A61S
B9: TetRrevAtc4-47: revTetR(BD) L51L E58A I59N H63Y (protein)
chain: MSRLDKSKVINSALELLNEVGIEGLTTRKLAQKLGVEQPTLYWHVKNKRALLDALAVANLERYNDYSLPAAGESWQSFLRNNAMSFRRALLRYRDGAKVHLGTRPDEKQYDTVETQLRFMTENGFSLRDGLYAISAVSHFTLGAVLEQQEHTAALTDRPAAPDENLPPLLREALQIMDSDDGEQAFLHGLESLIRGFEVQLTALLQIV
modifications: Modified tetracycline repressor
notes: revTetR(BD) L51L E58A I59N H63Y
B10: TetRrevAtc4-48: revTetR(BD) D53N A54S L55L A56P V57V A61A R62L (protein)
chain: MSRLDKSKVINSALELLNEVGIEGLTTRKLAQKLGVEQPTLYWHVKNKRALLNSLPPEILALHHDYSLPAAGESWQSFLRNNAMSFRRALLRYRDGAKVHLGTRPDEKQYDTVETQLRFMTENGFSLRDGLYAISAVSHFTLGAVLEQQEHTAALTDRPAAPDENLPPLLREALQIMDSDDGEQAFLHGLESLIRGFEVQLTALLQIV
modifications: Modified tetracycline repressor
notes: revTetR(BD) D53N A54S L55L A56P V57V A61A R62L
B11: TetRrevAtc4-5: revTetR(BD) I59F A61S H64Q A97T (protein)
chain: MSRLDKSKVINSALELLNEVGIEGLTTRKLAQKLGVEQPTLYWHVKNKRALLDALAVEFLSRHQDYSLPAAGESWQSFLRNNAMSFRRALLRYRDGTKVHLGTRPDEKQYDTVETQLRFMTENGFSLRDGLYAISAVSHFTLGAVLEQQEHTAALTDRPAAPDENLPPLLREALQIMDSDDGEQAFLHGLESLIRGFEVQLTALLQIV
modifications: Modified tetracycline repressor
notes: revTetR(BD) I59F A61S H64Q A97T
B12: TetRrevAtc4-52: revTetR(BD) D53F A54T L55M I59S H63Q (protein)
chain: MSRLDKSKVINSALELLNEVGIEGLTTRKLAQKLGVEQPTLYWHVKNKRALLFTMAVESLARQHDYSLPAAGESWQSFLRNNAMSFRRALLRYRDGAKVHLGTRPDEKQYDTVETQLRFMTENGFSLRDGLYAISAVSHFTLGAVLEQQEHTAALTDRPAAPDENLPPLLREALQIMDSDDGEQAFLHGLESLIRGFEVQLTALLQIV
modifications: Modified tetracycline repressor
notes: revTetR(BD) D53F A54T L55M I59S H63Q

Tested on: tet operator sequence
Test: β-galactosidase activity of a tetracycline-regulated promoter in transformed E. coli with revTetR, in the presence and absence of anhydrotetracycline (atc)
Type: cell-based, Escherichia coli
Details: for β-Galactosidase Activity, Cultured Without ATC: RevTetR isolate cultured in the absence of anhydrotetracycline (ATC); for β-Galactosidase Activity, Cultured With ATC: RevTetR isolate cultured in the presence of anhydrotetracycline (ATC)
Summary of the method: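 TetR(BD) chimera mutants (TetR(B) residues 1–50, TetR(D) 51–208) expressed in E. coli regulating a tet operator-controlled lacZ. β-Galactosidase measured in Miller units at 28 °C and 37 °C with and without anhydrotetracycline; reported as percent of maximal expression without Tet repressor.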

Row | Molecule | β-Galactosidase Activity, Cultured Without ATC | β-Galactosidase Activity, Cultured With ATC
1 | B1 | 105.95 | 21.606
2 | B2 | 61.649 | 13.63
3 | B3 | 98.629 | 12.116
4 | B4 | 85.141 | 4.217
5 | B5 | 65.039 | 2.181
6 | B6 | 70.5665 | 2.5363
7 | B7 | 56.743 | 14.428
8 | B8 | 99.61 | 13.878
9 | B9 | 83.987 | 13.969
10 | B10 | 110.179 | 16.146
11 | B11 | 98.272 | 12.552
12 | B12 | 105.367 | 5.575
